Data as given in patent US20060205646.

Legend:
[1] = system: T1, p26 protein from Artemia franciscana
T1 sequence: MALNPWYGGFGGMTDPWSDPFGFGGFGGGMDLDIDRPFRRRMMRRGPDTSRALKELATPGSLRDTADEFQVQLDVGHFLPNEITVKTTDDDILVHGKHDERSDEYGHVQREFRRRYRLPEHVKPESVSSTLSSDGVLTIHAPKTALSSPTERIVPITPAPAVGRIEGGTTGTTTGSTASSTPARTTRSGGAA

bovine serum albumin = bovine serum albumin (UniProt P02769)
bovine serum albumin, sequence (P02769 25-607): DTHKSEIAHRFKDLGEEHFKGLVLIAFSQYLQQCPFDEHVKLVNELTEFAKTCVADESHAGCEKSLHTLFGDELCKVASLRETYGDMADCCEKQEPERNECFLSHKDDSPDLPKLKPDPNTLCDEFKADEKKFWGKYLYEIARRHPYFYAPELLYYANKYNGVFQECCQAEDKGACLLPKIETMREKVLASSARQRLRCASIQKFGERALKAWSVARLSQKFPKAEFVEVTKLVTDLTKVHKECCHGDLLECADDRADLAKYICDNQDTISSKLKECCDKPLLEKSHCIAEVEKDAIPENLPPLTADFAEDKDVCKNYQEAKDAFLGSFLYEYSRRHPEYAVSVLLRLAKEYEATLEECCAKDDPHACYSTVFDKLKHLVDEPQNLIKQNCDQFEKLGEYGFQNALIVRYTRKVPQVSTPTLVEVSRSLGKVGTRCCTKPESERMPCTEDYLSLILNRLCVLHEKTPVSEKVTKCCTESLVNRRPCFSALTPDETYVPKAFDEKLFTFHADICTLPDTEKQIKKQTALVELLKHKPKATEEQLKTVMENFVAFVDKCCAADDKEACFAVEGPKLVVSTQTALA

activated recombinant MMP9, sequence (chain, as listed by the source): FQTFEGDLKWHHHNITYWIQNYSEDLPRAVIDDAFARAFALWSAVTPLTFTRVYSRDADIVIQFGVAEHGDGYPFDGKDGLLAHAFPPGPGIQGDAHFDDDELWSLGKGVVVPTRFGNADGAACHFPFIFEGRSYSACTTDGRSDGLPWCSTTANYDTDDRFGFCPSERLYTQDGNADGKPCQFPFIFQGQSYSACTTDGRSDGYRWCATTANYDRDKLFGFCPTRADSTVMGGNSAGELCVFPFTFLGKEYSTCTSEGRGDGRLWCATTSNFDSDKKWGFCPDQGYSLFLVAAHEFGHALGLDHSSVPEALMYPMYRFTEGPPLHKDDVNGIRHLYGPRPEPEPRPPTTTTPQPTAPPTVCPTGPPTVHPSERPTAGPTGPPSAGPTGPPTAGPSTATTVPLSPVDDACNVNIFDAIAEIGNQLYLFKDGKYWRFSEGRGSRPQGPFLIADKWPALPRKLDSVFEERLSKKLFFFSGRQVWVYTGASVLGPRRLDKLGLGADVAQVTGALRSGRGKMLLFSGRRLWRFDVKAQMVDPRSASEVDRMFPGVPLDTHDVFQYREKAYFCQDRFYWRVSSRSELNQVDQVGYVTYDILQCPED
Heat gamma, sequence (chain, as listed by the source): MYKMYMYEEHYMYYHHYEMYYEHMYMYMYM

Nde I restriction endonuclease
cleavage of pET-28a by Nde I after 1 hour pretreatment at 40° C. (agarose gel) [1]: In the presence of 5 µg of p26 protein, Nde I remained fully active, and completely cleaved pET-28a | cleavage of pET-28a by Nde I after 1 hour pretreatment at 40° C. (agarose gel) (bovine serum albumin): An equivalent amount of BSA (5 µg) did not protect the enzyme any better than the buffer control

activated recombinant MMP9
cleavage of Fluorogenic Peptide substrate I by 0.270 µg activated recombinant MMP9, 60 µg Heat Gamma (Heat gamma): Heat gamma efficiently inhibits the MMP9 activity as indicated by a decrease in relative fluorescence
